The results in this text go back to publication PMC5409509, “The mismatch repair and meiotic recombination endonuclease Mlh1-Mlh3 is activated by polymer formation and can cleave DNA substrates in trans”.

For data set [1], the target named is T1, Mlh1-Mlh3 (Saccharomyces cerevisiae, UniProt P38920;Q12083 1-769;1-715).
T1 sequence 1: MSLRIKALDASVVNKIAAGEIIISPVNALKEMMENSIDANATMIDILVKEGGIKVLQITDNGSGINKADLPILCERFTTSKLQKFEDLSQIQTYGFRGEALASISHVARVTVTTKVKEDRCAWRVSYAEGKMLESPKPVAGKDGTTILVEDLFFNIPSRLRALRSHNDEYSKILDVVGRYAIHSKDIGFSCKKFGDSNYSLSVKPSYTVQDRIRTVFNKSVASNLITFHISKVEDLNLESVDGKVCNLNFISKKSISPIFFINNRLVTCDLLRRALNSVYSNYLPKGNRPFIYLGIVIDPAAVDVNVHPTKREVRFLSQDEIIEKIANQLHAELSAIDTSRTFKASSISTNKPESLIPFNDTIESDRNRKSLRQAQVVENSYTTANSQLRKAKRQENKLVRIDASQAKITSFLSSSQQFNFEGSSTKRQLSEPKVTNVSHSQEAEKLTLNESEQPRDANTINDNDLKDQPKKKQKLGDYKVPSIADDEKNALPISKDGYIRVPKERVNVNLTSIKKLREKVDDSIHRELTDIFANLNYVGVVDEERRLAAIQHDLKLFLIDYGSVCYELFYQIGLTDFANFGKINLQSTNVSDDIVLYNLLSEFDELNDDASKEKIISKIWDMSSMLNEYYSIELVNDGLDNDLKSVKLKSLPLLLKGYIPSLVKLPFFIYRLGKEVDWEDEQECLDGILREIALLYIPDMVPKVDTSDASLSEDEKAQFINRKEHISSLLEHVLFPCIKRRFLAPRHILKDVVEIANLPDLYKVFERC
T1 sequence 2: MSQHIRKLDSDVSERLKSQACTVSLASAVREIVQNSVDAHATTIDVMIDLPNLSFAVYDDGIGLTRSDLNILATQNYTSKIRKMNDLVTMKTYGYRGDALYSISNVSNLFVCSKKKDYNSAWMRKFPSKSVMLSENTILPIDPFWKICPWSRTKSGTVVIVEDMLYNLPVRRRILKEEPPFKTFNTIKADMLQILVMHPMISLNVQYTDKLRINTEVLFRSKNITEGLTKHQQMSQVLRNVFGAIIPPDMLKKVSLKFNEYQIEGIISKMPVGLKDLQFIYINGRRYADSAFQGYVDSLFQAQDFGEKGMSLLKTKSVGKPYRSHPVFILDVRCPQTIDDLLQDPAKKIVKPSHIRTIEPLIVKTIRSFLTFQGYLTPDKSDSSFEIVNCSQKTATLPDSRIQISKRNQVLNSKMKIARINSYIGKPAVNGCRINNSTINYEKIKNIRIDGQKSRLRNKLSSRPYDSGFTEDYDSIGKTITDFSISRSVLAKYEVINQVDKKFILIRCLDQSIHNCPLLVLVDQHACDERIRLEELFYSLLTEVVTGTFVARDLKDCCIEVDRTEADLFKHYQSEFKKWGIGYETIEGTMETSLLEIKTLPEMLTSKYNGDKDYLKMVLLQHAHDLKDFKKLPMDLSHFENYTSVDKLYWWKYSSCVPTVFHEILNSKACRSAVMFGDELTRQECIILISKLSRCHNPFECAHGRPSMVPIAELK
The data set can be described thus: competition; very strong competitor of plasmid nicking, 0-2000 nM oligo, 1 mM Mg2+; Filter binding: 20 mM Tris-HCl pH 7.5, 0.01 mM EDTA, 2 mM MgCl2, 40 ug/mL BSA, 0.1 mM DTT, 15 uM nucleotide DNA, 10 min at 30 C (20 or 150 mM KCl in Fig 4B; KCl not stated for Fig 4A). The settings on record: protein: recombinant; copies: 1;1; blunt.

Data set [2] addresses T1, Mlh1-Mlh3. In words: competition; very strong competitor of plasmid nicking, 0-2000 nM, 1 mM Mg2+; Filter binding: 20 mM Tris-HCl pH 7.5, 0.01 mM EDTA, 2 mM MgCl2, 40 ug/mL BSA, 0.1 mM DTT, 15 uM nucleotide DNA, 10 min at 30 C (20 or 150 mM KCl in Fig 4B; KCl not stated for Fig 4A). The settings on record: protein: recombinant; copies: 1;1; 4-way junction with 26 bp mobile homologous core.

B1: +8 loop oligonucleotide (AO3142/AO3143) (dsDNA)
DNA 1: GGGTCAACGTGGGCAAAGATGTCCTAGCAAGTCAGAATTCGGTAGCGTG
DNA 2: CACGCTACCGAATTCTGACTTGCTAGGTGTGTGTGACATCTTTGCCCACGTTGACCC
For B1, in data set [1], the binding result is “binds”.

B2: Holliday junction X26 (structured_DNA)
DNA 1: GCGCTACCAGTGATCACCAATGGATTGCTAGGACATCTTTGCCCACCTGCAGGTTCACCC
DNA 2: GGGTGAACCTGCAGGTGGGCAAAGATGTCCTAGCAATCCATTGTCTATGACGTCAAGCTC
DNA 3: GAGCTTGACGTCATAGACAATGGATTGCTAGGACATCTTTGCCGTCTTGTCAATATCGGC
DNA 4: GCCGATATTGACAAGACGGCAAAGATGTCCTAGCAATCCATTGGTGATCACTGGTAGCGC
Consider B2, for which, in data set [2], the binding result is listed as “binds”.
